Source: patent publication US20230295324A1 (published 2023)
Like-named read-outs stand apart in the source and are kept apart here.

Key:
[1] = target: T1, human PSMA on LNCAP cells (human, UniProt Q04609 1-750); test: FACS, LNCAP cells (human PSMA)
T1 construct: whole, on cells
Procedure: (§1) This example is intended to investigate the in vitro binding activity of OX40×TAA bispecific antibodies obtained in Example 9 to tumor-associated antigens (TAAs). […] Briefly, those cells were digested, resuspended in a complete medium, and washed with PBS, and the cell density was adjusted to 1×10⁶ cells/ml with PBS. The cells were seeded in a 96-well V-bottom plate (Corning, #3894) at 100 μL/well, and centrifuged, and then the supernatant was discarded. Then, the test antibodies diluted in a 3-fold gradient were added at 100 μL/well. The cells were incubated at 4° C. for 1 h away from light. Thereafter, the cells in each well were rinsed twice with 100 μL of pre-cooled PBS, and centrifuged at 500 g at 4° C. for 5 min, and then the supernatant was discarded. […] The plate was incubated away from light at 4° C. for 30 min. The cells in each well were rinsed twice with 100 μL of pre-cooled PBS, and centrifuged at 500 g at 4° C. for 5 min, and then the supernatant was discarded. Finally, the cells in each well were resuspended in 200 μL of pre-cooled PBS, and the fluorescence signal values were read using NovoCyte flow cytometer (ACEA Biosciences).

[2] = target: T2, human OX40 protein (Acro biosystem, #OX0-H5224) (human, UniProt P43489 29-216); test: BLI, antibody on ProA sensor, 1:1 global fit
T2 construct: Bought recombinant protein
T2 sequence (looked up): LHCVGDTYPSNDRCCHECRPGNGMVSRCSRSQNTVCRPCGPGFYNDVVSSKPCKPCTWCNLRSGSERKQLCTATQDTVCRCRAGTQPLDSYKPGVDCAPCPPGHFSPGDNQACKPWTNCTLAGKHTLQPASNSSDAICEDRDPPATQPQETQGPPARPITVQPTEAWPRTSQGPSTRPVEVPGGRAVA
Procedure: (§2) The binding kinetics between the antigen and the antibody was analyzed by the Biolayer Interferometry (BLI) technique using an Octet Red 96e molecular interaction analyzer (Fortebio).
(§3) The association and dissociation signals between the OX40 antibodies and OX40 proteins were recorded by Octet Red 96 in real time. When data analysis was performed using Octet Data Analysis software (Fortebio, version 11.0), 0 nM was used as a reference hole, and reference subtraction was performed; the “1:1 Global fitting” method was selected to fit the data, and the kinetics parameters of the binding of antigens to antigen-binding proteins were calculated, with kon(1/Ms) values, kdis(1/s) values and KD(M) values obtained.

[3] = target: T3, cynomolgus monkey OX40 protein (Novoprotein, #CB17) (cynomolgus monkey); test: BLI, antibody on ProA sensor, 1:1 global fit
T3 construct: Bought recombinant protein; also called cyno OX40
Procedure: as §2, §3

[4] = target: T4, human OX40 on cells (CHO-K1/hu OX40) (human, UniProt P43489 29-277); test: FACS, CHO-K1/hu OX40 cells
T4 construct: whole, on cells; Also used here for OX40 on the HEK293/OX40/NF-kb reporter cells and on human T cells in the functional assays; also called CHO-K1/OX40; human OX40 cells
T4 sequence (looked up): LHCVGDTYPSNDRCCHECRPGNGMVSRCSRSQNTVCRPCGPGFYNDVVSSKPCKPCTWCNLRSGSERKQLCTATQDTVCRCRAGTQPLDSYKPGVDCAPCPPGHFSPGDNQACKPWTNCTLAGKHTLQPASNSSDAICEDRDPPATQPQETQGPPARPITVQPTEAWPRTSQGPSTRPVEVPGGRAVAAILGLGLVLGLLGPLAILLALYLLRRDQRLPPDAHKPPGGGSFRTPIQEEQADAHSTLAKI
Procedure: This example is intended to investigate the in vitro binding activity of anti-human OX40 HCAb monoclonal antibodies to human OX40. The antibody binding assay at the cellular level was performed using a stable CHO-K1 cell strain overexpressing human OX40 (CHO-K1/hu OX40). Briefly, the CHO-K1/hu OX40 cells were digested, resuspended in an F12K complete medium and washed once with PBS. The cell density was adjusted to 1×10⁶ cells/mL with PBS. The cells were seeded in a 96-well V-bottom plate (Corning, #3894) at 100 μL/well, and centrifuged, and then the supernatant was discarded. Then, the test antibodies diluted in a 3-fold gradient at concentrations that were 2 times the final concentrations were added at 100 μL/well. The cells were incubated at 4° C. for 1 h away from light. Thereafter, the cells in each well were rinsed twice with 100 μL of pre-cooled PBS, and centrifuged at 500 g at 4° C. for 5 min, and then the supernatant was discarded. […] The plate was incubated away from light at 4° C. for 30 min. The cells in each well were rinsed twice with 100 μL of pre-cooled PBS, and centrifuged at 500 g at 4° C. for 5 min, and then the supernatant was discarded. Finally, the cells in each well were resuspended in 200 μL of pre-cooled PBS, and the fluorescence signal values were read using a BD FACS CANTOII.

[5] = target: T4, human OX40 on cells (CHO-K1/hu OX40); test: FACS, blocking of biotin-human OX40L on CHO-K1/hu OX40 cells
Procedure: Briefly, the CHO-K1/hu OX40 cells were digested and resuspended in an F-12K complete medium, and the cell density was adjusted to 1×10⁶ cells/mL. The cells were seeded in a 96-well V-bottom plate (Corning, #3894) at 100 μL/well, and centrifuged, and then the supernatant was discarded. The test antigen-binding proteins diluted in a 3-fold gradient at concentrations that were 2 times the final concentrations were added at 100 μL/well, and the mixture was well mixed, wherein the antigen-binding protein had the highest final concentration of 100 nM, and a total of 8 concentrations were obtained. […] The cells were incubated at 4° C. for 1 h away from light. Thereafter, the cells were centrifuged at 4° C. for 5 min, and then the supernatant was discarded. […] The cells in each well were rinsed twice with 100 μL of pre-cooled PBS, and centrifuged at 500 g at 4° C. for 5 min, and then the supernatant was discarded. A 1:200 fluorescent secondary antibody PE Streptavidin (BD Biosciences, #554061) was added at 100 μL/well, and the cells were incubated away from light at 4° C. for 30 min. The cells in each well were rinsed twice with 200 μL of pre-cooled PBS, and centrifuged at 500 g at 4° C. for 5 min, and then the supernatant was discarded. Finally, the cells in each well were resuspended in 200 μL of precooled PBS. Fluorescence signal values were read using BD FACS CANTOII, and IC50 was calculated. Inhibition rate %={average MFI of non-blocking control well−MFI value of OX40 antibody}/{(average MFI of non-blocking control well)−average MFI of 100% blocking control well)}×100%.

[6] = target: T4, human OX40 on cells (CHO-K1/hu OX40); test: cell-based or functional assay
[7] = target: T4, human OX40 on cells (CHO-K1/hu OX40); test: cell-based or functional assay; remark: listed apart in the source
[8] = target: T2, human OX40 protein (Acro biosystem, …); test: ELISA, coated human OX40 protein
Procedure: (§4) This example is intended to investigate the in vitro binding activity of the anti-OX40 HCAb monoclonal antibodies prepared in Example 1 to human and cynomolgus monkey OX40 proteins. The antibody binding assay at the protein level was performed using a human OX40 protein (Acro biosystem, #OX0-H5224) and a cynomolgus monkey OX40 protein (Novoprotein, #CB17). Briefly, a 384-well plate (PerkinElmer, #6007509) was coated with 1 μg/mL human OX40 protein and a cynomolgus monkey OX40 protein dissolved in PBS at 20 μL/well, and incubated at 4° C. overnight. The next day, the 384-well plate was washed three times with PBS containing 0.05% Tween (MEDICAGO, #09-9410-100), and blocked with PBS containing 2% milk (Bio-Rad, #170-6404) at 37° C. for 1 h. […] The plate was added with a stop buffer (BBI life sciences, #E661006-0200) at 20 μL/well, and read for OD₄₅₀₋₆₅₀ values using a plate reader (Molecular Devices, model: SpectraMax Plus). The values were analyzed with Graphad 8.0 and plotted.

[9] = target: T3, cynomolgus monkey OX40 protein …; test: ELISA, coated cyno OX40 protein
Procedure: as §4

[10] = target: T5, human PD-L1 on MDA-MB-231 cells (human, UniProt Q9NZQ7 19-290); test: FACS, MDA-MB-231 cells (human PD-L1)
T5 construct: whole, on cells
Procedure: as §1

[11] = target: T4, human OX40 on cells (CHO-K1/hu OX40); test: FACS, CHO-K1/hu OX40 cells; remark: listed apart in the source
Procedure: This example is intended to investigate the in vitro binding activity of OX40×TAA bispecific antibodies obtained in Example 9 to human OX40. The antibody binding assay at the cellular level was performed using a CHO-K1 cell strain overexpressing human OX40 (CHO-K1/hu OX40). Briefly, CHO-K1/hu OX40 cells were digested, resuspended in an F12K complete medium, and washed with PBS, and the cell density was adjusted to 1×10⁶ cells/ml with PBS. The cells were seeded in a 96-well V-bottom plate (Corning, #3894) at 100 μL/well, followed by the addition of test antibodies diluted in a 3-fold gradient at concentrations that were 2 times the final concentrations at 100 μL/well. The cells were incubated at 4° C. for 1 h away from light. Thereafter, the cells in each well were rinsed twice with 100 μL of pre-cooled PBS, and centrifuged at 500 g at 4° C. for 5 min, and then the supernatant was discarded. […] The plate was incubated away from light at 4° C. for 30 min. The cells in each well were rinsed twice with 100 μL of pre-cooled PBS, and centrifuged at 500 g at 4° C. for 5 min, and then the supernatant was discarded. Finally, the cells in each well were resuspended in 200 μL of pre-cooled PBS, and the fluorescence signal values were read using NovoCyte flow cytometer (ACEA Biosciences).

T1 sequence (Q04609 whole entry): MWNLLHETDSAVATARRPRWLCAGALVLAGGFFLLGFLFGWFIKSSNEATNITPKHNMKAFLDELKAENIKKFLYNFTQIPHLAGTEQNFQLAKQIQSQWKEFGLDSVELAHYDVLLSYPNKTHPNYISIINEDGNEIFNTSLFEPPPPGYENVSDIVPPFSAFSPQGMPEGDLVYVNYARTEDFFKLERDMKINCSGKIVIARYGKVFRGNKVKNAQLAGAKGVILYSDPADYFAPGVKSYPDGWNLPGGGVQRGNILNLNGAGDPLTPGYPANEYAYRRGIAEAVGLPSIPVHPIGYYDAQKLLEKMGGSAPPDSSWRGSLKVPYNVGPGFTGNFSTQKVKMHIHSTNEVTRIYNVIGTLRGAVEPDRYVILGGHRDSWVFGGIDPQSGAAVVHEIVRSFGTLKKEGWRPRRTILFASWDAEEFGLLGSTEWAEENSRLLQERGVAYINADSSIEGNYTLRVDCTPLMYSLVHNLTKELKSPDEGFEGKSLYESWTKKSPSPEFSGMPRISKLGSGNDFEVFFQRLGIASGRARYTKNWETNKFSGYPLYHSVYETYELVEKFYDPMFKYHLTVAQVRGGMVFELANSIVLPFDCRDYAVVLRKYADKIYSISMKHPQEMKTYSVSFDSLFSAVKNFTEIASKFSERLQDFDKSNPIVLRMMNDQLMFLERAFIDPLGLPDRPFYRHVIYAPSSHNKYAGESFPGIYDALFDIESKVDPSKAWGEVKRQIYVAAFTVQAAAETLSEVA
T5 sequence (Q9NZQ7 19-290): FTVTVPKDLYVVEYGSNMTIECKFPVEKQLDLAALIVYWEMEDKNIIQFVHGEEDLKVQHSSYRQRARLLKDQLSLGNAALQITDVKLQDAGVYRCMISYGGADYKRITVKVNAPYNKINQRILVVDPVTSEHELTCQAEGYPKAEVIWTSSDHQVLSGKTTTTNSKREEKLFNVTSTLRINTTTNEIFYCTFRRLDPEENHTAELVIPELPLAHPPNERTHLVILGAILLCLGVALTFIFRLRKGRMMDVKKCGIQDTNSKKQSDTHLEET

B1: PR001331 (antibody, human IgG1, kappa, V domains shown)
VH: QVQLVESGGGVVQPGRSLRLSCSASGFTFINYGMNWVRQAPGKGLEWVAVIWYDGSNKYYADSVRGRFTISRDNSKNTLYLQMNSLRAEDTAVYYCARGPGYGGHSDAFDIWGQGTMVTVSS
VL: DIQMTQSPSSLSASIGDRVTITCRASQSINSYLNWYQQKPGKAPKLLIYTASSLLSGVPSRFSASGSWTDFSLTISSLQPEDFATYYCQQSFSTPYTFGQGTNLEIKR
notes: H2L2 parental antibody against PSMA; also called anti-PSMA H2L2 antibody
For B1, which EC50 [1] is on record?
Its EC50 is 2.58 nM.

B2: PR002066 (antibody, human IgG1, V domains shown)
VH: EVQLLESGGGLVQPGGSLRLSCIASGFTFSSYAMSWVRQAPGKGLEWVSAISGRGGSTFYADSVRGRFTISRDNSKNTLYLQMNSLRAEDTAVYYCANGMTGTTDVDYWGQGTQVTVSS
notes: no light chain; also called anti-OX40 HCAb antibody
For B2, which Kd [2] is on record?
The Kd was 8.71 nM.

What about the koff [2] of the same binder?
Its koff is 0.000387 s⁻¹.

And the kon [2]?
The kon was 44400 M⁻¹ s⁻¹.

And the Kd [3]?
The Kd was 22.7 nM.

And the koff [3]?
The koff was 0.00097 s⁻¹.

What about the kon [3] of the same binder?
Its kon is 42700 M⁻¹ s⁻¹.

What about the EC50 [4] of the same binder?
The EC50 was 4.67 nM.

And the “Maximum MFI” value [4]?
The value was 3010 MFI.

What about the IC50 [5] of the same binder?
Its IC50 is 67.6 nM.

And the “Maximum inhibition rate (%)” value [5]?
Its value is 58%.

What about the “EC50, HEK293/OX40/NF-kb luciferase reporter” value [6] of the same binder?
Its value is 5.45 nM.

What about the “Maximum fluorescence signal value, HEK293/OX40/NF-kb luciferase reporter” value [6] of the same binder?
The value was 147000 luminescence.

And the “EC50, IFN-γ release by human T cells with OKT3 and CHO-K1-CD32b cells” value [7]?
Its value is 0.031 nM.

What about the “Maximum IFN-γ release value” [7] of the same binder?
Its value is 1870.

What about the EC50 [8] of the same binder?
Its EC50 is 0.118 nM.

What about the “Maximum OD” value [8] of the same binder?
The value was 2.47 OD.

And the EC50 [9]?
Its EC50 is 0.37 nM.

What about the “Maximum OD” value [9] of the same binder?
The value was 2.44 OD.

B3: PR000265 (antibody, human IgG1, kappa, N297A, V domains shown)
VH: EVQLVESGGGLVQPGGSLRLSCAASGFTFSSYWMSWVRQAPGKGLEWVANIKQEGSEKYYVDSVKGRFTISRDNAKNSLYLQMNSLRAEDTAVYYCARDRAVAGAFDIWGQGTMVTVSS
VL: DIQMTQSPSTLSASVGDRVTVTCRASQSIYIWLAWYQQKPGKAPNLLIYKASSLETGVPSRFSGSGSGTEFTLTISSLQPDDFATYYCQQYYGSSRTFGQGTKVEIKR
notes: H2L2 parental antibody against PD-L1; also called anti-PD-L1 monoclonal antibody; H2L2 antibody
B3 was tested. Which EC50 [10] did it give?
The EC50 was 0.605 nM.

B4: PR004284 (bispecific antibody, human IgG1, kappa, L234A L235A)
light: DIQMTQSPSSLSASIGDRVTITCRASQSINSYLNWYQQKPGKAPKLLIYTASSLLSGVPSRFSASGSWTDFSLTISSLQPEDFATYYCQQSFSTPYTFGQGTNLEIKRTVAAPSVFIFPPSDEQLKSGTASVVCLLNNFYPREAKVQWKVDNALQSGNSQESVTEQDSKDSTYSLSSTLTLSKADYEKHKVYACEVTHQGLSSPVTKSFNRGEC
heavy: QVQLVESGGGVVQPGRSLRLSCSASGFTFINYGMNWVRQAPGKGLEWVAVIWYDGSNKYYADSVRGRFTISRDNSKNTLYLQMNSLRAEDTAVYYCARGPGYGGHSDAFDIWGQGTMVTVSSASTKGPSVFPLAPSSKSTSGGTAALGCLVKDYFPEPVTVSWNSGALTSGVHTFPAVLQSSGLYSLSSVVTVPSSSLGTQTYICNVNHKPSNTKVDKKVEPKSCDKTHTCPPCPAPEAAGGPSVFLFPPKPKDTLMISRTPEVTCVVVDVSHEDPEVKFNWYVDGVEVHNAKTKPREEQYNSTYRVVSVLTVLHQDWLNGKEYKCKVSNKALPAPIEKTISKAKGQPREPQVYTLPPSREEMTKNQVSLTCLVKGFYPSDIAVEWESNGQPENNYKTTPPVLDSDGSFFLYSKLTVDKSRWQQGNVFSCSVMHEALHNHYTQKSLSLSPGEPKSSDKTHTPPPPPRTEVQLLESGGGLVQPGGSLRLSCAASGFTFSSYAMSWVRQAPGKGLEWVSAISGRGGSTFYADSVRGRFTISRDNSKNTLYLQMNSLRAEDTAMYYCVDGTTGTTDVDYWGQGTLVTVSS
notes: IgG-VH tetravalent symmetric structure: PR001331 IgG (anti-PSMA) with the VH of PR002067 via linker H1_15-RT; human IgG1 Fc (L234A, L235A); also called PSMAxOX40 bispecific antibody
Which results are given for B4?
EC50 [1]: 6.7 nM; EC50 [11]: 4.96 nM; Maximum MFI [11]: 287000 MFI

B5: PR000327 (antibody, V domains shown)
VH: QVQLVESGGGLVKPGESLRLSCAASGFTFSDYYMYWVRQAPGKGLEWVAIISDGGYYTYYSDIIKGRFTISRDNAKNSLYLQMNSLKAEDTAVYYCARGFPLLRHGAMDYWGQGTLVTVSS
VL: DIQMTQSPSSLSASVGDRVTITCKASQNVDTNVAWYQQKPGQAPKSLIYSASYRYSDVPSRFSGSASGTDFTLTISSVQSEDFATYYCQQYDSYPYTFGGGTKLEIK
For B5, which EC50 [1] is on record?
The EC50 was 3.02 nM.
